Test: soluble on expression in E. coli; label from the status in PepcDB or PDB records

Sequence | soluble on expression in E. coli
MSLEQVEILRKFIQRVQAMKSPDHNGEDNFARDFMRLRRLSTKYRTEKIYPTATGEKEENVKKNRYKDILPFDHSRVKLTLKTPSQDSDYINANFIKGVYGPKAYVATQGPLANTVIDFWRMIWEYNVVIIVMACREFEMGRKKCERYWPLYGEDPITFAPFKISCEDEQARTDYFIRTLLLEFQNESRRLYQFHYVNWPDHDVPSSFDSILDMISLMRKYQEHEDVPICIHCSAGCGRTGAICAIDYTWNLLKAGKIPEEFNVFNLIQEMRTQRHSAVQTKEQYELVHRAIAQLFEKQLQLYEIHGAQKIADGVNEINTENEGHHHHHH | soluble
MSLERPLCISYIRFSKATQAEGSSLERQLQLSRTYAEEHGLVLDDKHSYQDLGKSAFTSEHVKEGEFGVFLEFVKQGRVPKGSVLLVESLDRLSRESVLTAFKQFQEILDAGIKIVTLSDKMEYTKEGFEANIGNIFISLGIMARANEESLRKSERICAAWRLKRKNLHNIKLTANCPGWLELTPDKKDFILKEDRVEIVKQIFELSLSGLGVKAISTILNKQKIEPFRSKIGWYQTTVRKILSNSAVIGEFQPHVFGSKHSKPVPDGELIKDYFPPIIDTDTFYAVQAKLKNGAHRPGRTAKVENLFSGYTRCGYCGSRMDVVARHNVGGEVRYLVCDSARRGVKCSYISMKCNEIEKAFFEYCREIDIRYVLRAEQQADQNRLNELRKSLTARNGKLMKVQKQIDMLNVFLDDITERAELEHYHEQIKKKLEEKTNLSEEIEKLSKGICIAEYDNNNIDVRVQNLLTLDKAQNKSVKEDDKIMFRIRLRDELRQIISQILVYPRGSVFSDEQIEQKERDYEIKIKSASDSEKHILKHEKTIDLDGMRQSQQNTKDDRFFVVRFKNGNYRTIKYDKKQQAYRVTSELINDKLNWWMGNKEMAPIFREEEELHPFETEFELDSNEGHHHHHH | not soluble
MSLESIKVGMIGYKFMGKAHSHAYRDLPMFFPDHLRPEMKVICGRNPEGVAQAASQYGWEEYTTNWKDLIRRDDIDLIDINAPSDVHKEITLAAAQAGKHIFCEKPLALTLQDSRHMLEAVEAAGVKHMVGFNYRFTPAVLLAKKLIAEGRLGDIYHFRAWFLQDWIVAPDFPLVWRLQKDIAGSGAHGDLGAHLIDMAHFLIGDITEVIGMNETFIKERPLPTEMTGLSGRGSNDHTVPKGPVTVDDATLFMARFANGALGSFEATRFATGHRSTNSFEINGSKGSVIFDFERLNELQVYFTDDQDDVQGFRRVLATDGAHAYSDRWWPAGHTIGYEHTFIHEIAELMESLQEGRQPVPNFKDGVKCQQVLEAVDLSIAKREWIQVSEGHHHHHH | soluble
MSLEYAKSLFERHLDIASKFRPKNPYLKTAYMNVLLSLTQTICQSPQELSNDDLSDAGAALAYLREAGFELDWLEKKLNEVKEKKKKEEACLAEIQDMDEHVKPLKKKYLDLEAQIDKKKAELLAARAPLSLNDDNVVSMFCDSAETQQWFDKNAPDWGFTEMISLTELHAEEGLLRNGELTVVAKVEVLEVVGKLDVSEESSPVIETIDVNGFQVLPSEGHHHHHH | soluble
MSLFCLPLEMRNHWHFFSLFTNLPRKSKWHRASEFFFPLLMSEIEDFR | soluble
MSLFPGDIEELARRIITDFTPLGLMVSTAESCTGGLIAGALTEIAGSSAVVDRGFVTYTNDAKRDMLGVGTETLTTFGAVSRQTALQMAHGALYRSRANFAVAVTGIAGPGGGSAEKPVGLVHLATKARNGNVLHHEMRYGDIGRTEIRLATVRTALEMLIALNQAGSV | soluble
MSLGADRSAPMTARIDQLLLERLKSAGVEPAPAADDGEFLRRAYLDLSGTIPPVAITRDYLADSSPAKRRQLIERLLASPAFASHLASTWREIILKPTDDFQQLQNQFALQAWLREQFSENARYDRIVEQFITASSEQDGPVYFYDALDLKPEQLAAETSRIFLGLHIQCAECHDHPFDDWKQRDFWGYAAFFARVAKRDSAMGRISLVDQEMGEVKIPESEETVAPLYPGGSAPSDRFGGTRRQKLAVWMVARDNPYTARRAVNWAWAHLFGRGLVEPVDDLSPLNAPSHPALMEELTQYFIDSGYDLRQLLRTLAMTDAYARSSQNVDGQRPELFANMAIKSLSPEQLYDAILRLGLIRETVGDLSSQAPQPFDRSQQRLQFVARMRTVSLDRTDFETGAPQALALMNGPPVSLATAPETSGFLKSLEAPFFSDEQRVELIALAAYSRQPTAEERQRFSEYLATASPNEKKQALGDLLWAVAASAEFMLNEGHHHHHH | not soluble
MSLGAKPFGEKKFIEIKGRRMAYIDEGTGDPILFQHGNPTSSYLWRNIMPHCAGLGRLIACDLIGMGDSDKLDPSGPERYAYAEHRDYLDALWEALDLGDRVVLVVHDWGSALGFDWARRHRERVQGIAYMEAIAMPIEWADFPEQDRDLFQAFRSQAGEELVLQDNVFVEQVLPGLILRPLSEAEMAAYREPFLAAGEARRPTLSWPRQIPIAGTPADVVAIARDYAGWLSESPIPKLFINAEPGALTTGRMRDFCRTWPNQTEITVAGAHFIQEDSPDEIGAAIAAFVRRLRPAHHHHHH | soluble
MSLGANIVSVEFIPVNVAATNWSENTVIVKVTDENGVYGLGEADGPPECMKAFSEIENEHKWLNNIKEAVIGRDPLEFRANYNRMYDTTKWIGMRGLGLFAISGIDMALYDLAGKQLGVPAYKLMGGAQKAQLTPYFTLYPSVAADATLSEIVEAYKPLIAKAKERGAKAVKVCIIPNDKVSDKEIVAYLRELREVIGWDMDMMVDCLYRWTDWQKARWTFRQLEDIDLYFIEACLQHDDLIGHQKLAAAINTRLCGAEMSTTRFEAQEWLEKTGISVVQSDYNRCGGVTELLRIMDICEHHNAQLMPHNWKTGITAAAARHFGIVCHISEYVEYLHPDFWNGTLTQQLTLNEPKIIDGAIEVSDKPGLGIELNIEFVEQVTGHKFEGHHHHHH | soluble
MSLGDLPLGWHKLHLKSNERSAECGLIITPARLSTADKYLDSPRSGVMAQIYSVRSTLSWGMGDFNDLGNLASVVAQDGADFLLINPMHAAEPLPPTEDSPYLPTTRRFINPIYIRVEDIPEFNQLEIDLRDDIAEMAAEFRERNLTSDIIERNDVYAAKLQVLRAIFEMPRSSEREANFVSFVQREGQGLIDFATWCADRETAQSESVHGTEPDRDELTMFYMWLQWLCDEQLAAAQKRAVDAGMSIGIMADLAVGVHPGGADAQNLSHVLAPDASVGAPPDGYNQQGQDWSQPPWHPVRLAEEGYIPWRNLLRTVLRHSGGIRVDHVLGLFRLFVMPRMQSPATGTYIRFDHNALVGILALEAELAGAVVIGEDLGTFEPWVQDALAQRGIMGTSILWFEHSPSQPGPRRQEEYRPLALTTVTTHDLPPTAGYLEGEHIALRERLGVLNTDPAAELAEDLQWQAEILDVAASANALPAREYVGLERDQRGELAELLEGLHTFVAKTPSALTCVCLVDMVGEKRAQNQPGTTRDMYPNWCIPLCDSEGNSVLIESLRENELYHRVAKASKRDEGHHHHHH | not soluble
MSLGFHEVRFPASLSFGSVGGPERHTDVVTLANGHEERNTPWAHSRRRYDAGVAMRGLDDIETLIAFFEARQAQLHGFRWKDWSDYKSGPALAEPAYHDQIIAIGDDVTASFPLIKAYRSGEQIYRRPITKPVAGTVRIGLSGDEQQEGVHYEVDTTTGIITFAHPPNEGLEITAGFEFDVPVRFDTDRIQTSVASFQAGDMPNVPVVEIRVEGHHHHHH | soluble
MSLGGNGREKDHASELRSIFSLKKIADAVNGYEEAKYVVFGIPFDNTSSYRRGSKYAPDSIRGAYVNLESYEYSYGIDLLASGMADLGDMEESEDVEYVIDTVESVVSAVMSDGKIPIMLGGEHSITVGAVRALPKDVDLVIVDAHSDFRSSYMGNKYNHACVTRRALDLLGEGRITSIGIRSVSREEFEDPDFRKVSFISSFDVKKNGIDKYIEEVDRKSRRVYISVDMDGIDPAYAPAVGTPEPFGLADTDVRRLIERLSYKAVGFDIVEFSPLYDNGNTSMLAAKLLQVFIASREKYYKEHIEGHHHHHH | soluble
MSLGIIRSILDTDLYKFTTGYAYAKLFPRAYGEFRFIDRNRQGFTEEFAELVRGEIRAMAALSLTRDEKEFLQRELPYLPPIYIDFLDGFRFDPEEVTVSIDAQGHLDIRAQGLLYRVTLWETPILAVISELYYRFIGAKPDWKQVEEVTRSKGELMREHRTTFSIFGMRRRFSLEVEDRVTDILKQYAGESLFGTSNVHLAHKHGLRVSGTHPHEWIQFHGAIYGYKMANYVAMEDWINVYDGDLGTVLTDTYTTDVFMRNFSKKHAMLFTSLRHDSGDPEIFIEKAVRRYEELRVDPKIKYIIFSDSLTPQRAIEIQKLCAGRIKASFGIGTNLTNDVGGGVEPLNIVMKLWKCKMTAKDDWHYCVKLSDVDGKHTGEPEEILLAMNTLGIKPKEGHHHHHH | soluble
MSLGILEQLENPKFKATKSEKTLIEYIKSDLDNIIYKSISIIAKESGVGEATITRFTKKLGFNGFQDFKVTLAKEISNKKNTSIINLHVHRDESVTETANKMLKSSINILEQTVKQIDLDLMCKCRDLIMNAKRVYFIGIGYSGIAATDINYKFMRIGFTTVPVTDSHTMVIMSSITNDDDVIVAISNSGTTKEVIKTVKQAKENGTKIITLTEDSDNPLRKLSDYELTYTSAETIFETGSISSKIPQIFLLDLLYTEVIKEMFSEAVEKKIKTTSAILNEGHHHHHH | soluble
MSLGIPKHDFYLYQSQWVSVKKKPMVHLLPHWNWENKELASKVADSEGKIPVRAYSNASSVELFLNGKSLGLKTFNKKQTSDGRTYQEGANANELYLEWKVAYQPGTLEAIARDESGKEIARDKITTAGKPAAVRLIKEDHAIAADGKDLTYIYYEIVDSQGNVVPTANNLVRFQLHGQGQLVGVDNGEQASRERYKAQADGSWIRKAFNGKGVAIVKSTEQAGKFTLTAHSDLLKSNQVTVFTGKKEGQEKTVLGTEVPKVQTIIGEAPEMPTTVPFVYSDGSRAERPVTWSSEGHHHHHH | soluble
MSLGIPPNEAKTLGTYVPGDITLVDSYGNEFQLKNLKGKPIILSPIYTHCRAACPLITKSLLKVIPKLGTPGKDFWVITFTFDPKDTLEDIKRFQKEYGIDGKGWKVVKAKTSEDLFKLLDAIDFRFMTAGNDFIHPNVVVVLSPELQIKDYIYGVNYNYLEFVNALRLARGEGHHHHHH | soluble
MSLGIRSGNNNGGFTNLTSQAPQTTQMFQSQSQLQPQPQPQPQQQQQHLQFNGSSDASSLRFGNSLSNTVNANNYSSNIGNNSINNNNIKNGTNNISQHGQGNNPSWVNNPKKRFTPHTVIRRKTTKQNSSSDINQNDDSSSMNATMRNFSKQNQDSKHNERNKSAANNDISSLLSNFNDIPPSVTLQDWQREDEFGSIPSLTTQFVTDKYTAKKTNRSAYDSKNTPNVFDKDSYVRIANIEQNHLDNNYNTAETNNKVHETSSKSSSLSAIIVFGYPESISNELIEHFSHFGHIMEDFQVLRLGRGINPNTFRIFHNHDTGCDENDSTVNKSITLKGRNNESNNKKYPIFTGESWVKLTYNSPSSALRALQENGTIFRGSLIGCIPYSKNAVEQLAGCKIDNVDDIGEFNVSMYQNSSTSSTSNTPSPPNVIITDGTLLREDDNTPAGHAGNPTNISSPIVANSPNKRLDVIDGKLPFMQNAGEGHHHHHH | soluble
MSLGIVIYGTRIIYPAEHKEVMVQLMNQGNRSSLMQAWIDDGDTSLPPEKIQVPFMLTPPVAKIGANSGQQVKIKIMPNKLPTNKESIFYLNVLDIPPNSPEQEGKNALKFAMQNRIKLFYRPAGIAPVNKVTFKKLLVNRSGNGLVIKNDSANWVTISDVKANNVKVNYETIMIAPLESQSVNVKSNNANNWHLTIIDDHGNYISDKEGHHHHHH | soluble

From the DeepSol protein solubility set
